# Patent publication US20230322924A1 (Janssen / Centocor, published 2023)
# Substitutions are numbered along the chain they refer to. Names and notes keep the numbering of the source.
# B1: C33B915 (antibody, V domains shown)
# VH: EVQLVESGGGLVQPGRSLRLSCAASGFTFDDYAMHWVRQVPGEGLEWVSGISWNGGDMVYADSVKGRFTISRDNAKNSLYLQMNSLRPEDTALYYCVKDMPYFDFLTGSDYYYYGMDVWGQGTTVTVSS
# VL: SYELTQPPSVSVSPGQTASITCSGDNLGNEHVCWYHQKPGQSPVLVIYQNNKRPSGIPERFSGSNSGNTATLSISGTQATDEADYYCQAWDSTTAVFGGGTKLTVL
# notes: OMNIMouse-derived anti-CD33 mAb; same V regions as C33B907; also called C33H255/C33L121; C33F553
# B2: C33B913 (antibody, V domains shown)
# VH: EVQLLESGGGLVQPGGSLKLSCTASGFTFRSYAMSWVRQAPGKGLEWVSAINGYGDGRYYADSVKGRFTISRDNSKNTLYLQMNSLRAEDTAVYSCAKDQGFGELFFDYWGQGTLVTVSS
# VL: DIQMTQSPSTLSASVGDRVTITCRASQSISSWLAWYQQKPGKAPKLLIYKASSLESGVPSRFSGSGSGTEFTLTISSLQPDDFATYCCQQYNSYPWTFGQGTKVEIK
# notes: OMNIMouse-derived anti-CD33 mAb; same V regions as C33B905; also called C33H253/C33L119; C33F551
# B3: C33B914 (antibody, V domains shown)
# VH: QVQLVESGGGVVQPGRSLRLSCAASGFTFSYYGMHWVRQAPDKGLEWVAVIWFDGNNKYYADSVKGRFTISRDNSKNTLYLQMNSLRAEDTAVYYCARDRELLFDYWGQGTLVTVSS
# VL: SYELTQPPSVSVSPGQTASITCSGDELGDMYACWYQQKPGQSPLVVIYQDSKRPSGIPERFSGSNSGNTATLTISGTQAMDEAAYYCQTWDTRIAVFGGGTNLTVL
# notes: OMNIMouse-derived anti-CD33 mAb; same V regions as C33B906; also called C33H254/C33L120; C33F552
# B4: C33B911 (antibody, V domains shown)
# VH: EVQLVESGGGLVQPGRSLRLSCAASGFTFDDYAMHWVRQAPGKGLEWVSGIGWSGGSIVYADSVKGRFKISRDNAKNSLYLQMNSLRAEDTALYYCAKDSPYGDFFDYWGQGTLVTVSS
# VL: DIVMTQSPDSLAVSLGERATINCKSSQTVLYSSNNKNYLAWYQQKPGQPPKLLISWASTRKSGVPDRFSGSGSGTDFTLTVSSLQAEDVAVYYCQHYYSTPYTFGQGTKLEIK
# notes: OMNIMouse-derived anti-CD33 mAb; same V regions as C33B903; also called C33H251/C33L117; C33F549
# B5: C33B77 (antibody, IgG1, V domains shown)
# VH: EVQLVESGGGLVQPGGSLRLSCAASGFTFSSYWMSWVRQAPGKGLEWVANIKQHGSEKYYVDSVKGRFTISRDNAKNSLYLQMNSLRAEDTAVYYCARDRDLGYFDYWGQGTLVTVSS
# VL: SYELTQPPSVSVSPGQTASITCSGNKLGAKFASWYQQKPGQSPVLVIYQDNKRPSGIPERFSGSNSGNTATLTISGTQAVDEADYYCQAWDSSTVVFGGGTKLTVL
# notes: huIgG1 F405L; also called C33F82; C33H72/C33L40
# B6: C33B87 (antibody, IgG1, V domains shown)
# VH: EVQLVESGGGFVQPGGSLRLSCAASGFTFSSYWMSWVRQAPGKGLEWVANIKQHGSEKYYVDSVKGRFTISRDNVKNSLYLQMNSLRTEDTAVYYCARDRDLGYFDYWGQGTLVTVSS
# VL: B5 VL with N25D, A29N, F31Y, N51T, F61V, V80M, Y86H
# notes: huIgG1 F405L; also called C33F92; C33H87/C33L35
# B7: C33B80 (antibody, IgG1, V domains shown)
# VH: EVQLLESGGGLVQPGGSLRLSCAASGFTFNYAMSWVRQAPGKGLEWVSAISGSGGSTYYADSVKGRFTISRDISKNTLYLQMNSLRAEDTAVYYCARTYNSGYYDGDFDYWGQGTLVTVSS
# VL: QSALTQPASVSGSPGQSIPISSTGTSSDDGKNNIVSWYQQHPGKAPKLMIYKDSKRPSGVSNRFSGSKSGNTASLTISGLQADDEADYHCCSYAGASNHVVFGGGTKLTVL
# notes: huIgG1 F405L; also called C33F85; C33H76/C33L39
# B8: C33B124 (antibody, IgG1, V domains shown)
# VH: EVQLLESGGGLVQPGGSLRLSCAASRFTFSSYAMTWVRQAPGKGLEWVSTINISGGSTYYADSVKGRFTISRDNSKNTLYLQMNSLRAEDTAVYYCTKGGYSSGPFDYWGQGTLVSVSS
# VL: SYELTQPPSVSVSPGQTASITCSGDKLGDKYVRWYQQKTGQSPVLVMYQDSKRPSGIRERFYGSNSGNTATPTISGTQAVDEAEYYCQAWDSSTGVVFGGGTKLTVL
# notes: huIgG1 F405L; also called C33F129; C33H73/C33L32
# Biological target: T1, Cyno CD33 ECD-HSA (cynomolgus monkey)
# T1 construct: Cyno CD33 ECD fused to HSA and a six-histidine tag; also called C33W1
# Assay: ProteOn SPR, mAb captured on anti-human Fc, antigen as analyte
# Description: (§1) The panel of mAbs was then further characterized for full affinity analysis as well as epitope binning. The binding of anti-CD33 mAbs to recombinant human CD33 ECD-HSA (C33W2) and cyno CD33 ECD-HSA (C33W1) was measured by ProteOn SPR (Bio-Rad). […] Different mAbs were captured on the anti-human Fc IgG surface at 0.25 or 0.5 μg/ml (160-300 RU) in vertical ligand orientation, with the 6th ligand channel as no ligand surface control. Human and cyno CD33-HSA proteins at 0.3 μM concentration in 3-fold dilution series of 5 concentrations flew in as analyte to bind to captured mAbs in the horizontal orientation. A buffer sample was also injected in the 6th channel to monitor the dissociation of captured mAb and baseline stability. […] The raw biding data were processed by double referencing after subtracting the response data from: 1) the inter-spot to correct for the non-specific interactions between the Ag and the empty chip surface; 2) the buffer channel to correct for baseline drifting due to the dissociation of captured mAb surface over time. The processed data at all antigen concentrations for each mAb were globally fit to a 1:1 simple Langmuir binding model to extract estimates of the kinetic (kₒₙ, koff) and affinity (Kd) constants.
Binder,Kd,koff,kon
B1,0.0234 nM,8.93e-05 s⁻¹,3.81e+06 M⁻¹ s⁻¹
B2,0.12 nM,0.000308 s⁻¹,2.56e+06 M⁻¹ s⁻¹
B3,0.44 nM,0.000233 s⁻¹,529000 M⁻¹ s⁻¹
B4,1 nM,0.00115 s⁻¹,1.15e+06 M⁻¹ s⁻¹

# Biological target: T2, Human CD33 ECD-HSA (human)
# T2 construct: CD33 ECD fused at the C-terminus to monomeric HSA (C58S) and a six-histidine tag; also called C33W2; huCD33 ECD-HSA
# Assay: as above
# Description: as §1
Binder,Kd,koff,kon
B1,4.53 nM,0.000989 s⁻¹,218000 M⁻¹ s⁻¹
B2,0.969 nM,0.00064 s⁻¹,660000 M⁻¹ s⁻¹
B3,22.1 nM,0.0098 s⁻¹,444000 M⁻¹ s⁻¹
B4,0.0378 nM,4.14e-05 s⁻¹,1.1e+06 M⁻¹ s⁻¹

# Biological target: T3, Cyno CD33 full length, expressed on HEK293F cells (cynomolgus monkey)
# T3 construct: HEK293F cells transduced with lentivirus containing full length cyno CD33 (Genbank XP_005590138.1); also called cyCD33
# Assay: flow cytometry, HEK293F cells expressing cyno CD33
Binder,MFI at 0 nM mAb (background),MFI at 0.6 nM mAb,MFI at 6 nM mAb,MFI at 60 nM mAb
B5,85.2 MFI,3600 MFI,11700 MFI,17500 MFI
B6,103 MFI,3270 MFI,12700 MFI,19600 MFI
B7,82.4 MFI,109 MFI,249 MFI,4610 MFI
B8,98.4 MFI,77.3 MFI,132 MFI,593 MFI

# Biological target: Human CD33 ECD-HSA (human)
# Assay: SPRi off-rate screen (IBIS MX96), mAb captured by anti-human Fc; column head prints KD
row,Binder,koff
1,B5,0.000337 s⁻¹
2,B6,0.000352 s⁻¹
3,B7,0.000384 s⁻¹
4,B8,0.000238 s⁻¹

# Biological target: T4, Human CD33 full length, expressed on HEK293F cells (human, UniProt P20138 18-364)
# T4 construct: HEK293F cells transduced with lentivirus containing full length human CD33; also called huCD33
# Assay: flow cytometry, HEK293F cells expressing human CD33
# T4 sequence (P20138 18-364 limits assumed): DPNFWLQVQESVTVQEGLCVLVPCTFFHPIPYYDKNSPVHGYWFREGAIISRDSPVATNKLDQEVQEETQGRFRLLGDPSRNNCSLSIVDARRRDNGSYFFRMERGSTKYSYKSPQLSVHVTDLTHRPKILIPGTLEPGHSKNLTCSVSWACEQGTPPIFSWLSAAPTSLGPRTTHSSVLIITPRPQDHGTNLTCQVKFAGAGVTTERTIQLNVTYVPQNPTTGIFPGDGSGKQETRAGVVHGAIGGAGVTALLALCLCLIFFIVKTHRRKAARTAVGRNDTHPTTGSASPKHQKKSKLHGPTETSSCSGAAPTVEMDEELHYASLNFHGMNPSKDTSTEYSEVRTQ
Binder,MFI at 0 nM mAb (background),MFI at 0.6 nM mAb,MFI at 6 nM mAb,MFI at 60 nM mAb
B5,69.5 MFI,11500 MFI,88700 MFI,242000 MFI
B6,73.7 MFI,12500 MFI,79500 MFI,242000 MFI
B7,88.9 MFI,115 MFI,410 MFI,5800 MFI
B8,172 MFI,90.3 MFI,126 MFI,798 MFI

# Biological target: Human CD33 ECD-HSA (human)
# Assay: ProteOn SPR, mAb captured by anti-human Fc, 1:1 Langmuir fit
Binder,Kd,koff,kon
B5,0.32 nM,0.000262 s⁻¹,828000 M⁻¹ s⁻¹
B6,0.6 nM,0.000432 s⁻¹,720000 M⁻¹ s⁻¹
B7,1.32 nM,0.000425 s⁻¹,323000 M⁻¹ s⁻¹
B8,0.35 nM,0.000124 s⁻¹,357000 M⁻¹ s⁻¹

# Biological target: T5, Cyno CD33 ECD-HSA (cynomolgus monkey)
# T5 construct: Cyno CD33 extracellular domain fused to monomeric human serum albumin and a six-histidine tag; also called C33W1
# Assay: as above
Binder,Kd,koff,kon
B5,0.247 nM,0.000266 s⁻¹,1.08e+06 M⁻¹ s⁻¹
B6,0.236 nM,0.000264 s⁻¹,1.12e+06 M⁻¹ s⁻¹
B7,0.527 nM,0.000259 s⁻¹,492000 M⁻¹ s⁻¹
B8,1.01 nM,0.000472 s⁻¹,467000 M⁻¹ s⁻¹

# Biological target: T6, Human CD33 full length (human, UniProt P20138 18-364)
# T6 construct: also called huCD33
# Assay: flow cytometry on HEK293F cells expressing human CD33
# Description: (§2) The purified antibodies were assessed for binding to stably transfected HEK293F cells expressing human CD33 or cyno CD33 (generation described above) along with the parental HEK293F as negative control. Cells were harvested from tissue culture flasks using non-enzymatic dissociation buffer (Thermo Scientific). The flasks were rinsed twice with PBS and dissociation buffer was added to the flask, and the flask was incubated for 10 minutes at 37° C. until the cells became non-adherent. The cells were centrifuged at 300 g for 5 minutes and resuspended at 1.0×10⁶ cells/ml in staining buffer (Becton Dickinson; Franklin Lakes, NJ). 50,000 cells/well of each cell type was plated in 50 μl of staining buffer in round bottom plates (Becton Dickinson). […] 100 μl staining buffer was added to all wells of each plate, the plates were spun at 300 g for 5 min, the buffer was removed, 200 μl staining buffer was added to all wells of each plate, the plates were spun at 300 g for 5 min, and the buffer was removed. 50 μl of 2 μg/ml of Goat-anti-human Fc AF647 secondary antibody (Jackson Immunoresearch; West Grove, PA) was added to all wells of the plates, and the plates were incubated for 30 min at 4° C. 100 μl staining buffer was added to all wells of the plates, the plates were spun at 300 g for 5 min, and the buffer was removed. 200 μl running buffer (running buffer is Staining buffer, 1 mM EDTA, 0.1% Pluronic Acid) was added to all wells of the plates, the plates were spun at 300 g for 5 min, and the buffer was removed. 30 μl running buffer containing Sytox Green live/dead dye (ThermoFisher) was added to all wells with cells and the plates were read on an iQue IntelliCyt flow cytometer. Cells were gated on forward vs. side scatter to eliminate debris, then on singlets and then on live cells which excluded the Sytox stain. Antibody binding was assessed by the mean fluorescence intensity in the AF647 channel.
# (§3) The OmniMouse panel (8 mAbs total) was generated separately and characterized further for binding to cells.
# T6 sequence (P20138 18-364 limits assumed): as above
Binder,MFI at 0 nM (background),MFI at 0.6 nM,MFI at 6 nM,MFI at 60 nM
B1,112 MFI,138000 MFI,363000 MFI,390000 MFI
B2,128 MFI,205000 MFI,409000 MFI,519000 MFI
B3,185 MFI,153000 MFI,315000 MFI,304000 MFI
B4,114 MFI,13500 MFI,100000 MFI,238000 MFI

# Biological target: T5, Cyno CD33 ECD-HSA
# Assay: SPRi off-rate screen (IBIS MX96), mAb captured by anti-human Fc; column head prints Cyno CD33 binding KD
row,Binder,koff
1,B5,0.000418 s⁻¹
2,B6,0.000228 s⁻¹
3,B7,0.000266 s⁻¹
4,B8,0.000477 s⁻¹

# Biological target: T7, Cyno CD33 full length (cynomolgus monkey)
# T7 construct: also called cyCD33
# Assay: flow cytometry on HEK293F cells expressing cyno CD33
# Description: as §2, §3
Binder,MFI at 0 nM (background),MFI at 0.6 nM,MFI at 6 nM,MFI at 60 nM
B1,114 MFI,36200 MFI,35700 MFI,37500 MFI
B2,106 MFI,35200 MFI,36900 MFI,40700 MFI
B3,86.8 MFI,22100 MFI,33400 MFI,45000 MFI
B4,97.9 MFI,1940 MFI,7730 MFI,17000 MFI
